The text below walks through data of publication PMC4792071 (The Journal of Cell Biology, 2016).

Positions count from the first letter of the chain named.

The target in one assay is T1, Arl2^T30N-Venus (Drosophila melanogaster, UniProt Q06849 1-184, T30N).
T1 sequence (looked up): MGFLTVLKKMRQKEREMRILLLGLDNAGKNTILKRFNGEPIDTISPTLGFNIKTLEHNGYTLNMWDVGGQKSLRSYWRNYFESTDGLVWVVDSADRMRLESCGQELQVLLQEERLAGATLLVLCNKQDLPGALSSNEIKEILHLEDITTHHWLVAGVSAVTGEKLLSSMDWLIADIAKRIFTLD
Briefly: co-IP.

The next assay has as its target T2, Arl2^Q70L-Venus (Drosophila melanogaster, UniProt Q06849 1-184, Q70L).
T2 sequence (looked up): T1 sequence (looked up) with N30T, Q70L
Briefly: co-IP.

B1: HA-TBCE (natural protein, Drosophila melanogaster, UniProt A1Z6J5 1-523, looked up)
chain: MVGIIDEVQLFYPLGTRIKIGDNYGTVRYVGEVSGHMGSWLGIEWDDGLRGKHNGIVDGKRYFQTQTPTGGSFIRPGKVGPCATLEDAARERYLNYDSSNVDESLIREAQASLQASLFEVVGMDKIARKQSKFEQLEEVSVDQTPVNAAGYLKELTHLTTLNVSHTLIWNWEIVASIAQQLPSLTNLNLSSNRLVLPTSSQITELEPSFRQLKRINLRSCGFSDWKDVMHTALLWPNILSLGLQENSLGQLAEVDRTKIFKQLHELDLHRTNIMDFDQVTKLGNLTTLRLLNIMENGIEEIKLPDCDSQEKLNIFVSLEQLNLLHNPIWNEADAFNELDKLPQLKRLSKTPHLKSNFDEMFSKAVASIASLQFINKAEVTAEQRRGAEYDIWKKYALDWMQATQGGTDSLREFCRRHRTYPLLVKKYGSPADFVPRSQAKQSNLINVSIRHQLTGETWEKKVPRMITVQTLQGLVMKRFRLSGDVPQLCYVDALHPDLVVPLDNNAKTLDFYSVQEHDTVLVQ
On to B1, for which the “fold amount co-precipitated, against Arl2^Q70L-Venus” value with Arl2^T30N-Venus is approximately 3.1 fold.

B2: HA-TBCC (natural protein, Drosophila melanogaster, UniProt Q7KU40 1-355, looked up)
chain: MEGDAENRKDQILERLNKRNKDRQNYLDVKSELRSKETVQNEGVDYFYQTFSQKTMDIEQRLKDVQCGDGQPTDLARNFADITVEIQDLQRYLTASTMFLPDFKIKSCQNILNTLTAVSDETRQRLLPKKKFGFSGKKTVTKPKVPPNKDIVDAKLSKVPEKLGSNFTWTIANRTNEHIVLDSAKVNGQDITISKLNHCLVELQGHPGSVQVSRASKCTLLCGPIARSFFAENLEDCTLSIACQQLRLHSSRSIRIYMHVTCRAIIEDCKSIEIGEYNYDYSKLEADYLASGLNKAQNNYTDVADFNWLSPDVPSPNWSLLKDYPDPNWNALRRDFIANNHNSELKQDVKDISII
On to B2, for which the “fold amount co-precipitated, against Arl2^T30N-Venus” value with Arl2^Q70L-Venus was approximately 9.6 fold.
